{
  "source": "paper PMC5788503",
  "about": "“Hepatitis B virus core protein allosteric modulators can distort and disrupt intact capsids” (eLife, 2018)",
  "biological_target": "the molecule itself",
  "test": "negative stain electron microscopy; Cp149 assembly reaction, 50 mM HEPES, 300 mM NaCl, 10 uM dimer, no CpAM",
  "data": [
    {"protein": "Hepatitis B virus core protein assembly domain, Cp149 (domain or fragment, Hepatitis B virus subtype adyw core protein (Cp), assembly domain: the first 149 residues of the 183-residue protein; Purified as a homodimer; Dimers were assembled into capsids at 10 uM dimer in 300 mM NaCl, 50 mM HEPES pH 7.5; The apo capsid comparator PDB 1QGT is cited without its construct being named; also called purified dimeric assembly domain; apo-capsids; source: E. coli, purified by …) MDIDPYKEFGATVELLSFLPSDFFPSVRDLLDTAAALYRDALESPEHCSPHHTALRQAILCWGDLMTLATWVGTNLEDPASRDLVVSYVNTNVGLKFRQLLWFHISCLTFGRETVLEYLVSFGVWIRTPPAYRPPNAPILSTLPETTVV", "values": [
      {"measurement": "binding result", "result": "binds"}
    ]}
  ]
}
